Results: the nanobody polyreactivity screen of Harvey et al. (2022)

Test: yeast display, Sf9 membrane polyspecificity reagent, FACS + sequencing; frameworks hold sequencing errors
Method in brief: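 Nanobodies came from a synthetic yeast display library in Saccharomyces cerevisiae BJ5465, induced with galactose for 36–48 hours and stained for 1 hour at 4 °C with 10% biotinylated, detergent-solubilized Sf9 membrane reagent. Cells were enriched on streptavidin microbeads and then FACS-sorted, with low and high (top ~1%) gates set on anti-HA fluorescence for expression and streptavidin fluorescence for reagent binding. Each polyreactivity label reflects the gate a clone came from. Genes were amplified by colony PCR, sequenced by MiSeq 2 × 250 and filtered by CDR length.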

Row | Sequence | polyreactivity (PSR sort gate)
1 | QVQLVESGGGLVQAGGSLRLSCAASGRTFSYYAMGWYRPAPGKERELVARITYRGGRTYYADSVKGRFTISRDNAKNTVYLQMNSLKPEDTAVYYCATTSWRYGYDYWGQGTQVTVSS | high polyreactivity
2 | QDQLVESGGGLVQAGGSLRLSCAASGRIFPWYTMGWYRQAPGKERELVAVISSGGRTHYADSVKGRFTISRDNAKNTVYLLMNSLKPEDTAVYYCAAESRYQRYDYWGQGTKVTVSS | high polyreactivity
3 | QVQLVESGGGLVQAGGSLRLSCAASGITFGSYAMGWYRQAPGKEREFVAAISLSGGNTYYADSVKGRFTISRDNAKNTVYLQMNSLKPEDTAVYYCAADYEYSGYGYWGQGTQVTGSS | high polyreactivity
4 | QVQLVESGGGFVQAGGSLRLSCAASGHIFFYYTKGWYRQAPGKERELVAGITIGGSTNYADSVKGRFTISRDNAKNSVYLQMNSLKPEDTAVYYCYVVLYVSIYSYGEYYYWGQGTQVTVSS | low polyreactivity
5 | QVQRVESGGGLVQAGRSLRLSCAASGTTFGRNAMGWYRQAPGIERELVAAINSGGGTYYADSVKGRFTISRDNAKNTVYLQMNSLKPEDTSVFYCAAARRYGNYDYWGQGTQLTVSS | low polyreactivity
6 | QVQLVESGGGLVQAGGSLRLSCAASGFIFRTYAMGWYRQAPGKERELVAAISGTTGSTYYADSVKGRFTISRDNAKNTVYLQMNSLKPEDTAVYFCAADYYWYIRYEYWGQGSQVTVSS | low polyreactivity
7 | QVQLVESGGGLVQAGGSLRLSCAASGSTLSRYVMGWSRHAPGKERELVASISWSGTRTYYADSVKGRFTISRDNAKNTVYLQMNSLIPEDTAVYYCNAVSRGGRLYDYWGQGTQVTVSS | high polyreactivity
8 | QVQLVESGGGLVQAGGSLRLSCAASGGTFGPYAMGWYSQAPGKERELVATIRSSGGRTYYADSVTGRFTISRDNAKNTVYFQMNSLKPEDTAVYYCAADNLRQFGEYDYWGQGTQVTVSS | low polyreactivity
9 | QVQLVESGGGLVQAGGSLRLSCAASGRIFRRNAMGWYRQAPGKEREFVAAITSSGDSTNYADSVKGRFTISRDNAKNTVYLQMNSLKPEDTAVYYCAADWARSALQGFYYWGQGTQVTVSS | low polyreactivity
10 | QVQLVESGRGLVQAGGSLRLSCAASGSMFGKHVMGWYRQAPGKERELVAAISRSGGRTYYADSVKGRFTISRDNANNTVYLQMNTLKPEDTAVYYCAADGQPIGQQTYDYWGQGTQVTVSS | high polyreactivity
11 | QVQLVESGGGLVQAGGSLRLSCAASGYTFSPNDMGWYRKAPGKERELVAAITSSVGSTYYADSVKGRFTISRDNAKNTVYLQMNSLKPEDTAVYYCARTYQVGDSIDDYWGQGTQVTVSS | low polyreactivity
12 | QVQLVESGGGLVQAGGSLRLICAASGIIFGIYDMGWYRQAPGKERELVAAIRRSGGSTYYADSVKGRFTISRDNAKNTVYLQMNSLKPEDTAVYYCATDAWYYSQTNHDYWGQGTQVTVSS | low polyreactivity
13 | QVQLVESGGGLVQAGGSLRLSCAASGSTFAAYAMGWYRQAPGKERELVAAISATGGSTYYADSVKGRFTISRDNAKNTVYLQMNRLKPEDTAVYYCAADYPSWYGYRYYYWGQGTQVTVSS | high polyreactivity
14 | QVQLVESGGGLVQAGGSLRLSCAASGSIFDSNAMGWYRQAPGKERELVASITSDGDTYYADSVKGRFTISRDNAKNTVYLQMNSLKPEVTAVYYCAAYVPYSGLDYWGQGTQVTVSS | low polyreactivity
15 | QVQLEESGGGLVQAGGSLRLSCAASGSTFYSNAIGWYRQAPGKEREFVAAISLRGGSTYYADSVKGRFTISRDNAKNTVYLQMNSLKPEDTAVYYCAVDYYRRNGLKVYYRYDYWGQGTQVTVSS | high polyreactivity
16 | QVQLVESGGGLVQAGGSRRLSCAASGRIICVYAMGWYRQAPGNERDLVAAITIGGSTYYADSVKGRFTISRDNAMNTFYLQMNSLKPEDTAVYYCNRRYNWYLHHYDYWGQGTQVTVSS | high polyreactivity
17 | QFQLVESGGGLVQAGGSLRLSCAASGSTFRTYAMGWYRQAPRKERELVADITWRGGSKYYADSVKGRFTISRDNAKNTVYSQMNSLKPEDPAVYYCATDRGPEVVLYDYWGQGTQVTVSS | low polyreactivity
18 | QVQLVESGGGLVQAGGSLRLSCAASGIIFYFYAMGWYRQAPGKERELVATITWSGTSTNYADSVKGRFTISRDNAKNTVYLQMNSLKPEDTAVYYCAARWPTGRNGYWGQGTQVTVSS | high polyreactivity
19 | QVQLVESGGGLVQAGGSLRLSCAASGITLTRYAMGWYRQAPGKDRELVAAISTGGGSTYYADSVKGRFTISRDNAKNTVYLQMNSLKPEDTAVYYCAARIRFARGYPITRTYDYWGQGTQVTVSS | high polyreactivity
20 | QFQRVESGGGLVQAGGSLRLSSAASASIFSVYTMGWSRQAPGKERELDAAISTGGGSKYYADSVKGRFTISRDNAKNTVYLQMKSLKPEDTSVYYCGTDYGWPPSYWYDSFGQGTQVTVSS | low polyreactivity
21 | QVQLVESGGGLVQAGGSLRLRCAASGFIFCQYSMGWYRQAPGKERELVAAITWGGTNTYYADSVKGRFTISRDNAKNTVYLQMNSLKPEDTAVYYCAADNSPFTGNLDYWGQGTQVTVSS | low polyreactivity
22 | QVQLVESRRGLVQARGSLRLSCAASGITFRWYAMGWYRQAPGKERELVAAITTGGSTKYADSVKGRFTISRDNAKNTVYLQMNSLKPEDTAVYYCAARGRYAGGYWGQGTQVTVSS | high polyreactivity
